We go through 2 molecules from publication PMC12669767.

Common to all, as to assay: co-immunoprecipitation of ALFA-TXNIP, label-free quantitative interactome (mass spectrometry)
Test [1] addresses T1, HECW1, endogenous in HEK293T, Q76N89.
T1 chain: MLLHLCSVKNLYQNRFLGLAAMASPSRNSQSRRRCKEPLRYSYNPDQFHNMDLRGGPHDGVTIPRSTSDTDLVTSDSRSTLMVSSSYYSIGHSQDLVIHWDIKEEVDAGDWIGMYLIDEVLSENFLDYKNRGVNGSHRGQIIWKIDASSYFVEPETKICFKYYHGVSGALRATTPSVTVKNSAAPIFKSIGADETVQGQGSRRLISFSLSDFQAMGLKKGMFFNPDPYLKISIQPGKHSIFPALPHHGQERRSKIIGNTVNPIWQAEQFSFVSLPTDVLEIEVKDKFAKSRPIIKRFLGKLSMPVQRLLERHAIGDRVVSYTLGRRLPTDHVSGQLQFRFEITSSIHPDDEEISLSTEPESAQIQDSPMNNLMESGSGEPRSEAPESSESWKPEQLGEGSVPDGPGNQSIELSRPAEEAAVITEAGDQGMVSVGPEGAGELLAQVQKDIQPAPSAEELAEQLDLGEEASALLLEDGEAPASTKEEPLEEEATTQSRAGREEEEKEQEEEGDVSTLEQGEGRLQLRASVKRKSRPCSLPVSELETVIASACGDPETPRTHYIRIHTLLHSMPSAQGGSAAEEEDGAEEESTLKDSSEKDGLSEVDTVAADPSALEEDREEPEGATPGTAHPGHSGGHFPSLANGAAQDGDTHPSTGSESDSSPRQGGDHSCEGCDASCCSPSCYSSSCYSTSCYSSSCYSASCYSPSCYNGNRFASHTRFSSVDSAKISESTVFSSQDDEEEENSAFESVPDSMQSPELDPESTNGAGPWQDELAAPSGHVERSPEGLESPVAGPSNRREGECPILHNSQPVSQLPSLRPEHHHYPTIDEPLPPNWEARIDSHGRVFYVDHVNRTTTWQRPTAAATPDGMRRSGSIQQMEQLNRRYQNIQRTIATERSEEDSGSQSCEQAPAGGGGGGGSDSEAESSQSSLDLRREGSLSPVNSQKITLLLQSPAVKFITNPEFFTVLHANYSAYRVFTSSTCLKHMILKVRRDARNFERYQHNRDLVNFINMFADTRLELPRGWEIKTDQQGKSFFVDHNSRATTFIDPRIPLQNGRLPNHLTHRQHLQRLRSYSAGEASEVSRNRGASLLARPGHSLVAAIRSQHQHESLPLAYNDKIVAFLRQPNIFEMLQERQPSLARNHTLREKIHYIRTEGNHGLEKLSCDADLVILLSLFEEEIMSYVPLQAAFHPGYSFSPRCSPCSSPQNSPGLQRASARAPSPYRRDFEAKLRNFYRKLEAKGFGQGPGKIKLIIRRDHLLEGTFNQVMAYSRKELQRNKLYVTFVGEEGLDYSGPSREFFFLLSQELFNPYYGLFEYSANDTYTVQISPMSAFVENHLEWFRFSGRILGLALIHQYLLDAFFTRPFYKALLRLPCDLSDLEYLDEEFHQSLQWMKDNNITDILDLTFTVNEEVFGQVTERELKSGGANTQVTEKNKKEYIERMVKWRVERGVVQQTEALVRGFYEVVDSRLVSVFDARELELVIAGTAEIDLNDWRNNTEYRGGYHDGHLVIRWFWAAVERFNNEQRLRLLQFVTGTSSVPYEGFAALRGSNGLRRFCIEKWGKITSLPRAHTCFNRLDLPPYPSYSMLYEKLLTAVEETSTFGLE
As to conditions: chain shown with the change, immunoprecipitated from HEK293T cells, n = 3, read off a plot.

Test [2] has as its target ITCH, endogenous in HEK293T, Q96J02. The settings on record: chain shown with the change, immunoprecipitated from HEK293T cells, n = 3, read off a plot; for response (normalized abundance): abundances normalized to unspecific background binding to empty beads, scatter plot.
Test [3] addresses HECW2, endogenous in HEK293T, Q9P2P5. As to conditions: chain shown with the change, immunoprecipitated from HEK293T cells, n = 3, read off a plot; for response (normalized abundance): abundances normalized to unspecific background binding to empty beads, scatter plot.
The target of test [4] is T2, NEDD4L, endogenous in HEK293T, Q96PU5.
T2 chain: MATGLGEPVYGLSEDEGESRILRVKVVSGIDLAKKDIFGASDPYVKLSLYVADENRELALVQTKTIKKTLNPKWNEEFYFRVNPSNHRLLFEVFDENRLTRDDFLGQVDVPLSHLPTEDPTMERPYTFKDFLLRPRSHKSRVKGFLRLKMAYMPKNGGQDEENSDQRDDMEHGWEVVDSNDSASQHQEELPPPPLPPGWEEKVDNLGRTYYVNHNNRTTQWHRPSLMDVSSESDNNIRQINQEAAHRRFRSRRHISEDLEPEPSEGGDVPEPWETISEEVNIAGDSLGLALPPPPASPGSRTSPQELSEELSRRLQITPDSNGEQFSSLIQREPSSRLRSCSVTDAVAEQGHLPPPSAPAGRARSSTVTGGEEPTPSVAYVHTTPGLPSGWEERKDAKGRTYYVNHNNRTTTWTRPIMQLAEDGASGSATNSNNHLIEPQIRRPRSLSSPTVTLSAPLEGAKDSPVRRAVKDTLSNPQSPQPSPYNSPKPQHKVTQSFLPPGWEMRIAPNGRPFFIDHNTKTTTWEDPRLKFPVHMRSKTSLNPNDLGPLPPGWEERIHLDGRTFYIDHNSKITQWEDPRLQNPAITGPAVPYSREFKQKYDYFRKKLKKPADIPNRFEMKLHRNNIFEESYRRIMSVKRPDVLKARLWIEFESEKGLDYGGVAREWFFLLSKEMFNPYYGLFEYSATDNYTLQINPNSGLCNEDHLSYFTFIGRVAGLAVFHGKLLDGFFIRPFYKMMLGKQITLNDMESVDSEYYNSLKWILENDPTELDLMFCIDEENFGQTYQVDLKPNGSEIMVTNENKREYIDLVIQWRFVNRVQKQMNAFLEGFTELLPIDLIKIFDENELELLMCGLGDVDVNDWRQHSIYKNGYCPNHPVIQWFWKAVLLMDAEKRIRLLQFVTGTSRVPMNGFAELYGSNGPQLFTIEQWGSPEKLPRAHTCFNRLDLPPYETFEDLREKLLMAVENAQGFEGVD
The settings on record: chain shown with the change, immunoprecipitated from HEK293T cells, n = 3, read off a plot; for response: histogram, parent: est. 1.1e10.

The mark [5] stands for this setting: abundances normalized to unspecific background binding to empty beads.

Changes are numbered by the printed parent chain.

Sequence of HECW2, endogenous in HEK293T, Q9P2P5 (Q9P2P5 whole entry): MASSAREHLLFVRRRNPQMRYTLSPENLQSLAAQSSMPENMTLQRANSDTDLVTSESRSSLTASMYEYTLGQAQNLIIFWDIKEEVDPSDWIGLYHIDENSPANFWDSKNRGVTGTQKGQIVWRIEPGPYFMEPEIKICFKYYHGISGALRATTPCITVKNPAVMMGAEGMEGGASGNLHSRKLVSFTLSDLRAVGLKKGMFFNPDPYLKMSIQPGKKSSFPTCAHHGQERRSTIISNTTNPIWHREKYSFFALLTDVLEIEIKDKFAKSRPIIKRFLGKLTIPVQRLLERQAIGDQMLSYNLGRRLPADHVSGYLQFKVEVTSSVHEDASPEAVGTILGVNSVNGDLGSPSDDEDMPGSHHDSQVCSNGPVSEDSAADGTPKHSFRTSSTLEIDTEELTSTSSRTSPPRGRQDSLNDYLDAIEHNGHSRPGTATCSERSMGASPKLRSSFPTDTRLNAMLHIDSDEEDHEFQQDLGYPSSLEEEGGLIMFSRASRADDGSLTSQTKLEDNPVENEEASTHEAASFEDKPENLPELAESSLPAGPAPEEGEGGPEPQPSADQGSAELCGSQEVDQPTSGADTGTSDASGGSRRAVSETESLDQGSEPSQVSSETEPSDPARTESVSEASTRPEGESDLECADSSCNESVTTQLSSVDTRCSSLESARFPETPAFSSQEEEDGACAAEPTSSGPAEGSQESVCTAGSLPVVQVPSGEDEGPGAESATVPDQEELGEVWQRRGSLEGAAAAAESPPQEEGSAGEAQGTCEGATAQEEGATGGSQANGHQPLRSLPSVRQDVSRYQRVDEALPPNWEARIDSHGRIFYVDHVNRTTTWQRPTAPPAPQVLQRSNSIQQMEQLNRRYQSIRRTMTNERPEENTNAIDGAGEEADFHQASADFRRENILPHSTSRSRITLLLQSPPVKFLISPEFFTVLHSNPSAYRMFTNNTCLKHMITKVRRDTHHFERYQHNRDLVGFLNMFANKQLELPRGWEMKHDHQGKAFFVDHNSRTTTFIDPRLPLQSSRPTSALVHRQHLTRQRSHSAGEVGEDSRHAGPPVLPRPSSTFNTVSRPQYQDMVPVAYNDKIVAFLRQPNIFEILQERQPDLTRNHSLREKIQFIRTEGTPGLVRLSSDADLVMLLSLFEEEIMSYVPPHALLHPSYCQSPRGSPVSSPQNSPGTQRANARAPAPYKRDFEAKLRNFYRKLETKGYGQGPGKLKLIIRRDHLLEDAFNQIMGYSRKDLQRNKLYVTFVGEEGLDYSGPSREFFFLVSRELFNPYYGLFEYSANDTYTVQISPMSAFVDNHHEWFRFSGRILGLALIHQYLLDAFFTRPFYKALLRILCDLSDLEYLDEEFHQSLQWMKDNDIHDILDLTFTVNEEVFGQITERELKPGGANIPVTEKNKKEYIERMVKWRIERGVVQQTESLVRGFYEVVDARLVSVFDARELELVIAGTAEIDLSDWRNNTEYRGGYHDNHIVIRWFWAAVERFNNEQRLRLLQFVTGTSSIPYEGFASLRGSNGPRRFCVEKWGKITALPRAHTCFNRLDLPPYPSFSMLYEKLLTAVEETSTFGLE
Sequence of ITCH, endogenous in HEK293T, Q96J02 (Q96J02 whole entry): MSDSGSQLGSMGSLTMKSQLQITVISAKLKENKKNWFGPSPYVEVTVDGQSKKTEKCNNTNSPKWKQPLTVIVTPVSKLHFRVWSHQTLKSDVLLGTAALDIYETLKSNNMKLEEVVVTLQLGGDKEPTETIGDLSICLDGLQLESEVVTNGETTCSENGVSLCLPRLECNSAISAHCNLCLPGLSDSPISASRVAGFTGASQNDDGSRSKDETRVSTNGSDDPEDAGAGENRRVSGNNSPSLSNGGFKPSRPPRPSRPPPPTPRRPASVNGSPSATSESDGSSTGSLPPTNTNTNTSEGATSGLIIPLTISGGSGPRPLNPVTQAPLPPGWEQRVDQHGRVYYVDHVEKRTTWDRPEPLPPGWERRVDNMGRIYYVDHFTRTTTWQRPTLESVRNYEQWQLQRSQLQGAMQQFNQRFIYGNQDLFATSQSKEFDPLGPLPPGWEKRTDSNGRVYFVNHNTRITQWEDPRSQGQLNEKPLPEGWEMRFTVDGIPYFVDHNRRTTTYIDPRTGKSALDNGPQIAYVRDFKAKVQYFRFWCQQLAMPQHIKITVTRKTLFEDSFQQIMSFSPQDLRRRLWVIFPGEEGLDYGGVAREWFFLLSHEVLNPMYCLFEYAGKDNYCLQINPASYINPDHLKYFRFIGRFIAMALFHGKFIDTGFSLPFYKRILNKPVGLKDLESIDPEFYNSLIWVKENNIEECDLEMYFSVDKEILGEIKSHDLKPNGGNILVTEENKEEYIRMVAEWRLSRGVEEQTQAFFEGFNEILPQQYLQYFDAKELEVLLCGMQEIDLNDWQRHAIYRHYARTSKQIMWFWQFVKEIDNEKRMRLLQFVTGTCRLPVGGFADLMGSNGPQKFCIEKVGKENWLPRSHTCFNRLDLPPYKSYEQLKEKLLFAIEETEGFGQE

B1: ALFA-tagged TXNIP (thioredoxin interacting protein), expressed in HEK293T, Q9H3M7 PPCY331AACA (protein)
chain: MVMFKKIKSFEVVFNDPEKVYGSGEKVAGRVIVEVCEVTRVKAVRILACGVAKVLWMQGSQQCKQTSEYLRYEDTLLLEDQPTGENEMVIMRPGNKYEYKFGFELPQGPLGTSFKGKYGCVDYWVKAFLDRPSQPTQETKKNFEVVDLVDVNTPDLMAPVSAKKEKKVSCMFIPDGRVSVSARIDRKGFCEGDEISIHADFENTCSRIVVPKAAIVARHTYLANGQTKVLTQKLSSVRGNHIISGTCASWRGKSLRVQKIRPSILGCNILRVEYSLLIYVSVPGSKKVILDLPLVIGSRSGLSSRTSSMASRTSSEMSWVDLNIPDTPEAAACAMDVIPEDHRLESPTTPLLDDMDGSQDSPIFMYAPEFKFMPPPTYTEVDPCILNNNVQ
With B1, the other: log2 PPxY331/WT in test [1] is -6.5 log2; in test [2], -1.1 log2; in test [3], -4.1 log2; in test [4] it was -0.7 log2. Also, the response (normalized abundance) stood at 1.5e+08 in test [2] (parent: est. 3.0e8) and 1.3e+06 in test [3] (parent: est. 1.0e8). In test [4] (setting [5]), the response was found to be 6.6e+09 abundance.

B2: ALFA-tagged TXNIP (thioredoxin interacting protein), expressed in HEK293T, Q9H3M7 PPCY331AACA; PPTY375AATA (protein)
chain: B1 chain with P375A, P376A, Y378A
With B2, the other: log2 PPxY/WT in test [1] (volcano plot) was -6.6 log2; in test [2] (volcano plot), -4.5 log2; in test [4] (volcano plot), -1.5 log2. Moreover, the response (normalized abundance) in test [2] (parent: est. 3.5e8) stood at 150000; in test [3] (parent: est. 1.3e8), 80000; in test [4] (abundances normalized to unspecific background binding to empty beads, scatter plot, parent: est. 1.0e10) it was 4e+09. Besides, in test [4] (setting [5]), the response worked out at 3.8e+09 abundance.
